# Test results as given in article PMC10478764.
# Molecular target: Mu8.1 conotoxin from Conus mucronatus (Conus mucronatus)
# Assay: crystal structure
substance,measurement,value
Mu8.1 conotoxin from Conus mucronatus (natural protein),stoichiometry N,2
